In US20140050743A1, “BINDING PROTEINS TO INHIBITORS OF COAGULATION FACTORS” (BAYER INTELLECTUAL PROPERTY GMBH, priority 2011, published 2014):

Experiment: ELISA-based activity assay of antibody variants without a competition step
Assay type: binding
Parameters: key: +++: Variants with an average ratio above reference plus 2×SD; +/−: variants with a ratio below reference minus 2×SD; ++: All variants with a performance in between both thresholds; −: Variants with a ratio below 0.5
Settings: Table 10, multiple substitutions within M14-G07, variant to reference ratio (reference 2-fold improved over wt)
Protocol: To determine the activity of the mutated antibody variants on compound from Example 1K an equilibrium or dissociation limited ELISA assay format was used. Briefly, MTP plates (Nunc Maxisorp black, 460518) were coated with 4 μg/ml streptavidin (Calbiochem, 189730) diluted in coating buffer (Candor Bioscience GmbH, 121500) and incubated over night at 4° C. After washing with PBST, plates were blocked with 100% Smart Block (Candor Bioscience GmbH, 113500) in PBST for 1 h at room temperature and the washing step was repeated. Plates were incubated with compound from Example 1K at varying concentrations (0.3-200 nM) for 1 h at 37° C., washed with PBST and antibody fragments were immobilized by adding 25 μl of the crude bacterial cultures for 1 h at room temperature. After washing with PBST a competition step or the immediate detection was performed. […] For the detection of the residually bound Fabs a HRP-coupled anti-lambda antibody (Sigma, A5175) diluted in 10% Smart Block in PBST was added for 1 h at room temperature. After washing 10 μM Amplex Red (Invitrogen, A12222) were added and incubated for 10 to 30 min at room temperature followed by measurement of the fluorescence signal.
Provided in Table 9 are several examples of single and/or double amino acid substitutions introduced into the heavy and/or the light chain of M14-G07 (wt). Performance of the variants was analyzed in quadruples in the ELISA without a competition step and the FXa deinhibition assay (FXa DIA). In the ELISA, averages were calculated and normalized to the respective average expression level. Overall performance of variants was evaluated by comparing the variant to wt ratio from 2-3 independent experiments. Variants with an average ratio above wt plus 2×SD (standard deviation of the ratio) were considered as improved and are marked with “++”, whereas variants with a ratio below wt minus 2×SD were considered as reduced in their binding affinity and are marked with “−”. All variants with a performance in between both thresholds are marked with “+/−”. Variants with average fluorescence counts below the negative control (non-expressing cells) plus 3×SD were considered as non-binding and marked with “−−” with none of the variants fulfilling this criteria. In the FXa deinhibition assay averages were calculated and overall performance of variants was evaluated by comparing the variant to wt ratio from 2-3 independent experiments. Variants with an average ratio above wt plus 2×SD were considered as improved and are marked with “++”, whereas variants with a ratio below wt minus 2×SD were considered as either reduced in their binding affinity or non-binding and are marked with “−−”. All variants with a performance in between both thresholds are marked with “+/−”. Variants not analyzed are marked with “nd” (not determined). CDRs were defined according to Kabat.
Provided in Table 10 are examples of combined amino acid substitutions within M14-G07 antibodies. While not every combination is provided in Table 10, it is contemplated that the anti-rivaroxaban antibody may comprise any combination of modifications provided. Variant performance was analyzed in quadruples in the ELISA without a competition step. Averages were calculated, average background signals determined on a streptavidin coated plate without compound from Example 1K were subtracted if the compound from Example 1K concentration used for coating was below 10 nM and signals were normalized to the respective average expression level. Overall performance of variants was evaluated by comparing the variant to reference ratio from 2-3 independent experiments using a 2-fold improved reference variant as compared to wt. Variants with an average ratio above reference plus 2×SD are marked with “+++”, whereas variants with a ratio below reference minus 2×SD are marked with “+/−”. All variants with a performance in between both thresholds are marked with “++”. […]

B1: M14-G07-28: antibody, Vh SEQ ID NO: 181, Vl SEQ ID NO: 182 (antibody, listed as Homo Sapiens, V domains shown)
VH: EVQLLESGGGLVQPGGSLRLSCAASGFTFSSYAMSWVRQAPGKGLEWVGGISGSGGSTYYADSVKGRFTISRDNSKNTLYLQMNSLRAEDTAVYYCARQGRTSFYLDVWGQGTLVTVSS
VL: QSVLTQPPSASGTPGQRVTISCSGSSSNIGSYYVYWYQQLPGTAPKLLIYDNNQRPSGVPDRFSGSKSGTSASLAISGLRSEDEADYYCVAWDDSYSGHWVFGGGTKLTVL
- ELISA: +++

B2: M14-G07-30: antibody, Vh SEQ ID NO: 185, Vl SEQ ID NO: 186 (antibody, listed as Homo Sapiens, V domains shown)
VH: EVQLLESGGGLVQPGGSLRLSCAASGFTFSSYAMSWVRQAPGKGLEWVSGISGSGGSTYYADSVKGRFTISRDNSKNTLYLQMNSLRAEDTAVYYCARQGRTSFYLDVWGQGTLVTVSS
VL: QSVLTQPPSASGTPGQRVTISCSGSSRNIGSFYVYWYQQLPGTAPKLLIYDNNQRPSGVPDRFSGSKSGTSASLAISGLRSEDEADYYCVAWDDSLSGHWVFGGGTKLTVL
- ELISA: +++

B3: M14-G07-37: antibody, Vh SEQ ID NO: 199, Vl SEQ ID NO: 200 (antibody, listed as Homo Sapiens, V domains shown)
VH: EVQLLESGGGLVQPGGSLRLSCAASGFTFSSYAMSWVRQAPGKGLEWVSGISGSGGSTYYADSVKGRFTISRDNSKNTLYLQMNSLRAEDTAVYYCAREGETSFYLDVWGQGTLVTVSS
VL: QSVLTQPPSASGTPGQRVTISCSGSSSNIGSYYVYWYQQLPGTAPKLLIYDNNQRPSGVPDRFSGSKSGTSASLAISGLRSEDEADYYCVAWDDSWSGHWVFGGGTKLTVL
- ELISA: +++

B4: M14-G07-33: antibody, Vh SEQ ID NO: 191, Vl SEQ ID NO: 192 (antibody, listed as Homo Sapiens, V domains shown)
VH: EVQLLESGGGLVQPGGSLRLSCAASGFRFSSYAMSWVRQAPGKGLEWVGGISGSGGSTYYADSVKGRFTISRDNSKNTLYLQMNSLRAEDTAVYYCARQGRTSFYLDVWGQGTLVTVSS
VL: QSVLTQPPSASGTPGQRVTISCSGSSRNIGAFYVYWYQQLPGTAPKLLIYDNNQRPSGVPDRFSGSKSGTSASLAISGLRSEDEADYYCVAWDWSYSGHWVFGGGTKLTVL
- ELISA: +++

B5: M14-G07-29: antibody, Vh SEQ ID NO: 183, Vl SEQ ID NO: 184 (antibody, listed as Homo Sapiens, V domains shown)
VH: EVQLLESGGGLVQPGGSLRLSCAASGFRFSSYAMSWVRQAPGKGLEWVSGISGSGGSTYYADSVKGRFTISRDNSKNTLYLQMNSLRAEDTAVYYCARQGRTSFYLDVWGQGTLVTVSS
VL: QSVLTQPPSASGTPGQRVTISCSGSSSNIGAYYVYWYQQLPGTAPKLLIYDNNQRPSGVPDRFSGSKSGTSASLAISGLRSEDEADYYCVAWDWSWSGTWVFGGGTKLTVL
- ELISA: +++

B6: M14-G07-31: antibody, Vh SEQ ID NO: 187, Vl SEQ ID NO: 188 (antibody, listed as Homo Sapiens, V domains shown)
VH: EVQLLESGGGLVQPGGSLRLSCAASGFTFSSYAMSWVRQAPGKGLEWVGGISGSGGSTYYADSVKGRFTISRDNSKNTLYLQMNSLRAEDTAVYYCARQGRTSFYLDVWGQGTLVTVSS
VL: QSVLTQPPSASGTPGQRVTISCSGSSSNIGAFYVYWYQQLPGTAPKLLIYDNNQRPSGVPDRFSGSKSGTSASLAISGLRSEDEADYYCVAWDWSLSGTWVFGGGTKLTVL
- ELISA: +++

B7: M14-G07-34: antibody, Vh SEQ ID NO: 193, Vl SEQ ID NO: 194 (antibody, listed as Homo Sapiens, V domains shown)
VH: EVQLLESGGGLVQPGGSLRLSCAASGFRFSSYAMSWVRQAPGKGLEWVGGISGSGGSTYYADSVKGRFTISRDNSKNTLYLQMNSLRAEDTAVYYCARQGRTSFYLDVWGQGTLVTVSS
VL: QSVLTQPPSASGTPGQRVTISCSGSTSNIGSYYVYWYQQLPGTAPKLLIYDNRQRPSGVPDRFSGSKSGTSASLAISGLRSEDEADYYCVAWDDSLSGTWVFGGGTKLTVL
- ELISA: +++

B8: M14-G07-32: antibody, Vh SEQ ID NO: 189, Vl SEQ ID NO: 190 (antibody, listed as Homo Sapiens, V domains shown)
VH: EVQLLESGGGLVQPGGSLRLSCAASGFRFSSYAMSWVRQAPGKGLEWVGGISGSGGSTYYADSVKGRFTISRDNSKNTLYLQMNSLRAEDTAVYYCARQGRTSFYLDVWGQGTLVTVSS
VL: QSVLTQPPSASGTPGQRVTISCSGSSSNIGAYYVYWYQQLPGTAPKLLIYDNRQRPSGVPDRFSGSKSGTSASLAISGLRSEDEADYYCVAWDDSLSGHWVFGGGTKLTVL
- ELISA: +++

B9: M14-G07-1: antibody, Vh SEQ ID NO: 127, Vl SEQ ID NO: 128 (antibody, listed as Homo Sapiens, V domains shown)
VH: EVQLLESGGGLVQPGGSLRLSCAASGFRFSSYAMSWVRQAPGKGLEWVGGISGSGGSTYYADSVKGRFTISRDNSKNTLYLQMNSLRAEDTAVYYCARQGRTSFYLDVWGQGTLVTVSS
VL: QSVLTQPPSASGTPGQRVTISCSGSSRNIGSFYVYWYQQLPGTAPKLLIYDNNQRPSGVPDRFSGSKSGTSASLAISGLRSEDEADYYCVAWDDSWSGTWVFGGGTKLTVL
- ELISA: +++

B10: M14-G07-2: antibody, Vh SEQ ID NO: 129, Vl SEQ ID NO: 130 (antibody, listed as Homo Sapiens, V domains shown)
VH: EVQLLESGGGLVQPGGSLRLSCAASGFTFSSYAMSWVRQAPGKGLEWVGGISGSGGSTYYADSVKGRFTISRDNSKNTLYLQMNSLRAEDTAVYYCARQGRTSFYLDVWGQGTLVTVSS
VL: QSVLTQPPSASGTPGQRVTISCCGSSRNIGSYYVYWYQQLPGTAPKLLIYDNNQRPSGVPDRFSGSKSGTSASLAISGLRSEDEADYYCVAWDDSWSGTWVFGGGTKLTVL
- ELISA: +++
